Source: publication PMC6078952

Key:
[1] = molecular target: recombinant human propeptide of lysyl oxidase (LOX-PP) (human) (UniProt P28300); experiment: SPR; Biacore T100 or T200, 25 °C, HBS pH 7.4 with 0.05% P20; LOX-PP covalently immobilised on a CM5 chip via amino groups, plasminogen as analyte; single-cycle kinetics, 2-state model, n = 2
[2] = molecular target: Tropoelastin (UniProt P15502); experiment: SPR; Biacore T100 or T200, 25 °C, HBS pH 7.4 with 0.05% P20; tropoelastin covalently immobilised on a CM5 chip via amino groups, LOX-PP as analyte; single-cycle kinetics, 2-state model
Chain of Tropoelastin (P15502 27-786): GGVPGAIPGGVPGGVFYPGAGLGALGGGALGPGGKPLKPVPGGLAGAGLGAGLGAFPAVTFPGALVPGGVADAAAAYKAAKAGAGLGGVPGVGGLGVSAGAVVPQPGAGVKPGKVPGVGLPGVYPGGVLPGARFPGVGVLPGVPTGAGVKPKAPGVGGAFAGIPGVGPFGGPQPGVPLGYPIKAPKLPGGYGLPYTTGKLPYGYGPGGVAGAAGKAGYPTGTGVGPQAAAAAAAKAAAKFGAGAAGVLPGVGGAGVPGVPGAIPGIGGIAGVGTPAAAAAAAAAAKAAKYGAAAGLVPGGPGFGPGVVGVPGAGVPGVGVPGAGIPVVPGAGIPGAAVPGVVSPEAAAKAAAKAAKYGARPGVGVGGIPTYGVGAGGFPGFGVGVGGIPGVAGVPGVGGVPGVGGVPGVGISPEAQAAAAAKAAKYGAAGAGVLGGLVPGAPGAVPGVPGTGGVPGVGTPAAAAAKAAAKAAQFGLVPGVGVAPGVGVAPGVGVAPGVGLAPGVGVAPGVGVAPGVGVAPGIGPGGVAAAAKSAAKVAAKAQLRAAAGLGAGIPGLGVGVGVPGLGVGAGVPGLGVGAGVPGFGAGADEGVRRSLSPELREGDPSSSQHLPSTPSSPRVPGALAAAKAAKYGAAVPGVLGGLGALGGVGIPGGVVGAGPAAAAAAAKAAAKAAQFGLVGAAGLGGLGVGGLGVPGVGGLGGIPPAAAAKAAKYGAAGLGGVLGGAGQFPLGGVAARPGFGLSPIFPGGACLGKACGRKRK

Chain of recombinant human propeptide of lysyl oxidase (LOX-PP) (human) (P28300 22-168 P24L): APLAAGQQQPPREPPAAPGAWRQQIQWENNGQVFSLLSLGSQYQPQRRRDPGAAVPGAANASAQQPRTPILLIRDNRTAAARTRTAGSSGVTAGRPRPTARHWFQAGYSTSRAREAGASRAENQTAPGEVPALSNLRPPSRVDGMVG

Row | Kd [1] | ka of the first step (2-state model) [1] | ka of the second step (2-state model) [1] | kd of the first step (2-state model) [1] | kd of the second step (2-state model) [1] | Kd [2] | ka of the first step (2-state model) [2] | ka of the second step (2-state model) [2] | kd of the first step (2-state model) [2] | kd of the second step (2-state model) [2] | Substance
1 | 15.8 nM | 41700 M⁻¹ s⁻¹ | 0.00214 s⁻¹ | 0.00515 s⁻¹ | 0.000306 s⁻¹ |  |  |  |  |  | Plasminogen (natural protein)
2 |  |  |  |  |  | 1.39 nM | 331 M⁻¹ s⁻¹ | 0.003 s⁻¹ | 0.0043 s⁻¹ | 3.1e-07 s⁻¹ | recombinant human propeptide of lysyl oxidase (LOX-PP) (from UniProt P28300 22-168) (domain or fragment)
